# Results taken from patent US20220112291A1.
# Molecular target: human CD1a expressed on cells (human) (UniProt P06126)
# Assay: cell-based or functional assay
# Sequence of human CD1a expressed on cells (human) (P06126 17-327): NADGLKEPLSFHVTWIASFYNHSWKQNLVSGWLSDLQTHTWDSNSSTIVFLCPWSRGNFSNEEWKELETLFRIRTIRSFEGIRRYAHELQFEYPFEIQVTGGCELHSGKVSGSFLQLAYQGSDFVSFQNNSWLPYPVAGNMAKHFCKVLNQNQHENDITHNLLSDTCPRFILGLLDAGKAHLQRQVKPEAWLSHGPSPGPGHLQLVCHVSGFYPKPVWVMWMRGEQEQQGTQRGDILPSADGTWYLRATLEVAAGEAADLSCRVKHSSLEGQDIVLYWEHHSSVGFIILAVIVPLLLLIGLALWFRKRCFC
"CD69 expression, IC50 [nM]","IL-2 secretion, IC50 [nM]",Substance
0.042,0.028,OKT6-human IgG1 (EFN) (antibody)
> 100,> 100,Human IgG1 (EFN) isotype control (antibody)
